According to the NTF2 design screens of Basanta et al. (2020):

Experiment: protease stability score; higher = more stable; yeast display proteolysis, trypsin and chymotrypsin;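 further: relative to predicted unfolded state with 0 unfolded-like and 1 meaning tenfold more protease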

Sequence	protease stability score
DEDHDVYHRLVKITLSLLATGDESWMKKLFDPHVRVNINGVDVHGREWLLKLFRLLLERLGVDHMTAHVHDFRQYDGRVHADTTEVYDVDGREIRFKTEVIIDKFNGRWFVTFVIII	1.78
DEDHEAMKHFQHLLERTHRTGDEERLLRLLDPNVRIIINGQHFHGREWWARHINHMRFHEYEFRVHHINVYGDKIEIDGTLRRRGEFDGREHEVNIRVHLTIEKFDGRWYMHILEFR	0.795
DEDHEAVERLLEHLQTAFLTGDWRREDELVDPNARVHFNGQERHGRHVLRYVNEFLEDRFKNLQIRHSTVHDSHVQGDKIILFTSYELRVDGREFSLKTKIIFHKVDGRWLVTHLYIE	0.823
DEDHEDMRKILELLRTAYETGDERVHEHLLDPNTRLHIGEFNNVGWHNVLEFFEQHQKELGVKHIELRLEDFDKQGDFLIIHGRLIVNVNGKRINVHLEVHMHKVNGRWYDRERRVL	0.928
DEDHEDSKHALEYMLDSVRTGDEHRMKRLVDPNMKVHWDGVDVVGRELAAKFLSQLRVHSVHLKDHKVFDGQLDLHVHIRQEWDGRHRETRTTFFILKINGRWLVTEVRVD	0.249
DEDHEEFHRLVHEIFEYWRTGDEESLSELADPHVRYLYGDKIWIGREDMMTFLREIRIDRVHIEDMRVHKIGNKAEIRSDTRMDLHFNGKRLETKTEVKIVLHKVNGRWVIKSIEYRIE	2.13
DEDHEELHHWSRLTLESIKTGNEDELHKFADPNVRFKVNGKDIHGMESFVRFMLEFIDRYPNLVLEEKHFHVVNGRMIQIIRVRVGDKTSEIFLIAHKVDGRWHLEHMEIR	1.08
DEDHEEVEKYLKLFMKISETGNEEDIKKMADPDTRVDIGDKRHHGMEEFLHFWSHWRIHSIDIKDIEVQGEKVIITGETDVTIDGRKLRMKIIIVALKVNGKWIHKSVKFE	1.37
DEDHEHLERHTRLFLERWRTGDEETLLKLFDPHARSEYGDKHHVGREEVTKLMVIILEKVKGLTIRRLRIKHIEYVDGRAHMDMEVTSEIDGQEVIESVHILMTKVDGRWRIQRVILV	0.927
DEDHEHLKRMADRSWKIFLTGDEDTFVHLADPNVKQHINIDGRNHQNHGREVILRWQEEFQNYFKNMKIELHDMKFYDGRVHIDATLHWNGVERKIHLIFVIVDGRIKEERFHVR	0.707
DEDHEIAKKASDIWWHILRTGDEDQLHKMMDPHVRTTVGDKEHHGREAVEHLTHFYKNMQIHVTHERFHVQGDKVHVEREGHLRIGDKRVEVRVRIEIHKVDGKWIIHTIEMELR	0.425
DEDHEIATKVLELWERLINTGDEEQMSRLADPNTKITIGEKDIVGREDIIKDMRHIRWKVKDFKIHDSSVIDGRIHLDGEMHVIFDVNGRRHERTIRMEIIVEKIDGRWVFKSIHIE	1.3
DEDHEILHRLWELLIKLLKTGDEEIMKRLADPDTKVEAEGRKLIGRDEFVKWMREFSKRFDHVEIRFKRMHIINGRVYMNGHIVEQQGEYQYRQDTIIVSEKVDGRWLITHIHIE	1.44
DEDHEISKRALEQWIHDLHTGDEDTLRKFADPNARMEVDGVEHHGMELAMRILLRIDVTEIRIKDMRIVDGRVEIDGEVRDKVNGKTRESRVHLYVLKVDGRWVMESITIQ	0.476
DEDHELAEDAIRWMSKIMLTGNEEHLHEMFDPDARIRFEGRSSHGWEEMIHFIRHIRIYIKESRIRDVRIQGDKIDVIGEVKIVIRIGDKIHEDTRDVYILVVKVDGRWTVRSFELV	0.712
DEDHELMRWMLELLIDHTLTGDEERIHELADPNVKIDVNGVELHGRHLWIKYLSELRIHKVEIRQTRLIDGVMHIDTSLDISYDGVRRETQHHLVILKINGKWMIHNVSYK	1.15
DEDHELSKLAQEWFYKTMVTGDEETAERLADPNMRIDINGKSLHGRKWQRHIIRDLGVDHVEFHDVRTINGQLHISTTINVDGRNQHTHIIVLKIDGRWSLRSSEFK	0.614
DEDHELSREFLEELLKSWITGDEDVMREFADPNVRQHVDGKDLHGMEEWTRFVYHMRFHDVRIEHHRLFDGQVEIKFREDVTYNGRRVHIESRVRIVKVNGVWRLKELYVH	0.858
DEDHELVEKFLRQMIFAQITGDWRFMMHLADPHVRYEVGDKHYHGREDMERVFREWRVNSIRIEHIRIIGDKAETHQDEDGHIDGRRIELHVRLILLKVDGRWIVHNSHII	1.37
DEDHELVHRAIRDLFRALDTGDEDALEEMMDPHTRLHVGDKIYHGRDNVLRFWRRLGVDHVKVHLHDVRIQGEKIDQNTELRIQIGDKRITTETRIIMFKFDGRWRRESVHIE	1.01
DEDHEQAKRVFDELVDNTRTGDFDNLRKLMDPHARLVINGRNFIGREEVIRVMHEIRIETHRIRSIRIINGQARIDVESEVDINGRTEETRVEIIVFKVDGRWYLHTLRIV	1.99
DEDHEQSHEMLELFVHSWKTGDWEILIKLLDPHARSIVNGREVHGREEISRYFKEELKKIPNMRIEVKIRSVEIQGDKVDNDVEIIIKYGDKLIRRKVHLLDLKVDGRWFLTDVTIE	1.96
DEDHERSEIASKITYKIIETGNEDLFSHFADPNTRLHVNGVDSVGMEDVIKVHRKLWKDLGVDHFILHDQKVDVVDGVAEVRLDTRLRFNGREFETEVRFLVLKFNGRWWIRMIEFRVI	0.968
DEDHERTKLFSKLFLKWTHTGDWEKILENADPNVRMHIGDKNFHGMHEVWRFLHEHLEKLGADVHSLTDLKIEAYNGVVVVHVEGTENINGRDITSRLHLIVIKVDGRWIIREIRVTIS	1.29
DEDHESWERAYNIYLHALRTGDEERNHELADPRVLTHIDGVELHGREMMTRVMTELRIHEHRIHRVHIIGEKIDIDIEVRFRWNGKLVDTRTHEHRLKVDGKWLLTRFEVR	0.76

Sequence	protease stability score
DEDHEVFKRINDLFHESLETGDERVLERLMDPNTRIEYGDKRVHGREELLRHMREMGIDHFNVEDTTVINGVAMLDVSIVVNGKVFKLEFYVNKVNGQWHLEHVEIREI	0.661
DEDHHEAEEWADLITHFLKTGDEKFLRDLADPNTRFKYGDFHIHGREQLTNFLRHYVERVKGIRSELKDKHVDVQGEKVRVELDLVLRIGDKTIHITIIIINLKVDGKWYVHTLVVEHR	1.18
DEDHHESHRALTELFKDLLTGDWKSSKELADPHARVDINGKEYHGREEMERFFKELWERLGIDHIDVKHIEIQGNKVISHLEIHVNGRTFNLIIIIDKVNGRWIIHSMKMDTE	0.968
DEDHHLVQLASEIVSKLIHTGDEEMIYHLADPHTRNDVNGKVFHGRDEMLKYLHDRWRHFGVERINHIVHHIRVVDGRADIDGRLHVGDKDFTVHIHMEKVNGRWVIKEIRIK	0.68
DEDHKEVKHILRMWMENLYTGDEELNNRLLDPNARWEVNGRDIHGRELILKVLSNEYTEWRMKHIKIDHVENVNGQVHVDITIKYDINGQEINLRTHIRIYIINGKIHEIHISIH	0.576
DEDHKFAVEILRRLMEIWFTGNEEELKHLADPDYRLRVRINGKEITRHGMEQSREQIKRWIDRIDHYEIRIRHLEWQGDKSHSHTELHMRFDGVIKKFETRIIVIVIDGKVSEIIIEIN	1.61
DEDHKHAERFVEEFITLILTGNEELLKRLADPNVKIDFDGVEIIGREILNSHTKKQINRIDHIRIHIRHIHVQGDKAIIDLEVRIIVDGKEDRNETHLFLTKVNGRWILTSWKVG	1.6
DEDHKHSEEAIKRWIDTMVTGDERLFNHLADPHTKIEFNGVDNHGMEEAVRVMIFIFRLLGVDHIRIEFRERHVFNGKVVWHFHLERRIGDKTEHINTHILMEKVDGRWLIQSERYE	1.56
DEDHKHWKKLTEILFHVFRTGDWHLLEKLADPNVRTVVNGVEIHGREHLADIMWLHKETLGIDHMELRSIEYQGEKFIIHAEIDVNGRKVDVHIRSVIIDGRMHSISIEVHHH	1.99
DEDHKIIEKLFRHWLELLLTGDEEEIEKQMDPHARIIINGRHTHGRDDIRRLLEEIRIRHLDIERLEIRIYGNKAVALSETRVEVRIGDKEFHVDYRIILIIEKVDGRWVKRSLELIVV	1.71
DEDHKIVEHMVKLIIDSMHTGDEHSIRELFDPNTRMDVNGVDFHGWEHYHKRIEDLRKRADHVTIYIRDMKVINGQAHIHTEMRIDIGDKHLRHRVIIIVLKVDGRWVIEQVIFL	2.29
DEDHKLAEHFIRLLSEKIETGDEDSYKEMVDPNVRIEIGDKEYHGRDEATRVMKEIRERVKNMRIEIHEIHIQGDKVHVRRIDKVGDKEIEKHLIVLKFDGRWVIERERVH	1.19
DEDHKLLEKFYRIWVEMFKTGDEERWKHLADPDARSDINGVDFIGRDTVSKIMESFLRKMGFDHMEIRRFDFQGEKIKSDVVLDFNGRDVRTEIHIIVVDGRIKEERFRVT	0.192
DEDHKQSKHAFELFMHLLRTGDEEVLRRMADPNARIVVNGKDDIGREVFLRVLLEFGVDHMQIRDWELDENHIILVSELRIGEKTHTLDVHFKKINGRWIVEVNNLE	1.25
DEDHKRVREMTDILIELLVTGNEDLLLKLMDPHARERIGDWHSHGRESFVKLLQDLLERIKNVRIEIKDMRIRIYNGVAHSHIDGNNIYNGREIKALWILIIEKINGRWIVHSIELETE	1.45
DEDHKSAEDMLRLLLETVITGDETLLEKLADPHVRLRVGDKKFIGMEELLRLLDEEKKRLGYTRVDLVLHHREVQGDKLHLETELRVNGRTYQTHWIALKINGRWIIHEVSIR	2.25
DEDHKWAKFMFEVFKKVVETGDEEVFKHLADPNVRMEVGDKEFIGREEFRRFLNELRIHHQRDTHIEIRSVGDKIEVLIDGETTIEVGDKTRDHRMRVILFTMKVDGRWLIRSIRFEIH	1.56
DEDHQASRLVFELLDRAWKTGDEQILNEMMDPHVKVVFNGVELHGRSALERLMKELRIDTLHLDHTEIYDGRMETEGKVDGEYNGRTLHHITKIRFEKIDGRWVEREVVIK	0.815
DEDHQMATIAFHLLIESLLTGDEHTIQEMFDPRVKVNINGVELIGWEALVEHLRRIDHHSIHQWTFRDVRFYDGVLNVLGEVDFEVVFDGRRVSHRVRFHLIIFKIDGKWMTRTVEVK	2.23
DEDHRDAIFILRLFLHATETGDEDSLETLMDPHVKLEINGVRIHGRETTYILMRHWRFRIEHLEIRNFDVFNGRLELIGHRHTTINIDGREERHTVRLEVHIWKINGQWLVQHIHIH	2.91
DEDHRDAQRLVEHWINVFETGDEEQIEKLLDPNARVIVDGRHVHGRSSVLKFIVDLVREMRVELRLKDLSVVDGRVHVKMEMRIEINGRREETEVDINAEKVDGVWRFKEMFVI	2.47
DEDHRDMEEFMRIFIDSLKTGDEESLARMLDPNARTKVNGVDFHGRESALEVLRRLWEEFGVDHMELKSREVEVQGNKVHIHLVVTLIQGDKHIHVRYHINTIKVDGRWLLHEINVEIR	1.36
DEDHRDVERLFQFVEELLHTGDERVNEELADPNVRIDVNGVERHGREDMVTWLRTIEERYKNATFHTHHIRIQGNKLKVNGRIRQGDWSSDVDILYVKINGRWFIRELKVK	1.49
DEDHRHARNIFQKWTHDLATGNFHSLNTLFDPHARFEVGDKDIIGRHEWQEHLRHLRLHEVKFTWRRFRIFDGRVEMRGDLRVDGTIDGQHDDETIHTHMIILKVNGRWHIDSMHVH	1.08
DEDHRIAHEIFRLLFHLLSTGDEDIFNQMADPHVQSIVGDKEFHGREQLRKAWHEIRVHRSDIHSVEIRVINGRVRNDMRIRYDGEINGKKIDTDIHMEVVIDKYNGRWIIRSVSIEII	2.16
